Reference: patent publication US20190211099A1 (KING S COLLEGE LONDON, published 2019)

Molecular target: T1, MUC1 carrying sialylated Core-1 glycans expressed by the breast cancer cell line T47D (UniProt P15941 24-1255, limits assumed, O-linked sialylated Core-1 glycans)
T1 construct: whole, on cells; also called MUC1-ST on T47D cells; T47D cells (MUC1-ST+ve)
Test: staining of FFPE T47D cells with human Siglec-9 IgG fusion, DAB

T1 sequence (P15941 24-1255 limits assumed, stated change not applied): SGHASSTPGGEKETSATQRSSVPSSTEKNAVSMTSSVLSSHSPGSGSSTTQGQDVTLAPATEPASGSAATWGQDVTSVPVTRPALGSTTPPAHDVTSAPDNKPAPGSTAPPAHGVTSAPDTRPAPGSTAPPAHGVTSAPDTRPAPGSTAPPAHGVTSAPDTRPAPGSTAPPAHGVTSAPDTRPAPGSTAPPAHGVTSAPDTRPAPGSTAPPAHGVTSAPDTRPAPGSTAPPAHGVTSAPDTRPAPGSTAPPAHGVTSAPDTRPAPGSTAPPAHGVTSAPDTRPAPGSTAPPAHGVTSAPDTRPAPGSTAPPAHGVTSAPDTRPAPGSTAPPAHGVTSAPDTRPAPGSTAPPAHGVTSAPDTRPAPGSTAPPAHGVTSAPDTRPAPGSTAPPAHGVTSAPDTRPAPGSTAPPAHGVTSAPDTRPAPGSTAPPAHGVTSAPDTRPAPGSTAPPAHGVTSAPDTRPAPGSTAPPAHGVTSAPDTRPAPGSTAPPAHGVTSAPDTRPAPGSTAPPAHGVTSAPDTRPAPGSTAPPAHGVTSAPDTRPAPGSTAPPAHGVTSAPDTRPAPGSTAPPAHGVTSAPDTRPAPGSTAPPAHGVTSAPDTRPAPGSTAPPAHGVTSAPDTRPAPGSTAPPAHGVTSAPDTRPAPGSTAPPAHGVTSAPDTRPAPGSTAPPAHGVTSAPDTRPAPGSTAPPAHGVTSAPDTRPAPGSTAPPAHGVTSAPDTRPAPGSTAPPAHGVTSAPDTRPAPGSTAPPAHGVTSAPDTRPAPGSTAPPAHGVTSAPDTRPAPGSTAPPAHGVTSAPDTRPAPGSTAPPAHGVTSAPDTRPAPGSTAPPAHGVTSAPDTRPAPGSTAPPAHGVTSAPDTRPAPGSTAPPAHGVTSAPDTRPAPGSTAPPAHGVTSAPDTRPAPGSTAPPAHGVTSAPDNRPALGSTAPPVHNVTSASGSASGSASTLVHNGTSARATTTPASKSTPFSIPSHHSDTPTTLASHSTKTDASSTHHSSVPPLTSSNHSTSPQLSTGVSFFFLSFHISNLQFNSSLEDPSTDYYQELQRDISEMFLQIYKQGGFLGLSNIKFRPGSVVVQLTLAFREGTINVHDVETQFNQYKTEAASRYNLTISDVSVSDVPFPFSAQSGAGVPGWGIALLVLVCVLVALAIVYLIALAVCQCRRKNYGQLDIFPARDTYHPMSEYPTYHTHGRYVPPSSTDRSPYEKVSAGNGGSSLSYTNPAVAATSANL

B1: Recombinant human Siglec-9 fusion protein (Fc fusion)
chain: TSKLLTMQSSVTVQEGLCVHVPCSFSYPSHGWIYPGPVVHGYWFREGANTDQDAPVATNNPARAVWEETRDRFHLLGDPHTKNCTLSIRDARRSDAGRYFFRMEKGSIKWNYKHHRLSVNVTALTHRPNILIPGTLESGCPQNLTCSVPWACEQGTPPMISWIGTSVSPLDPSTTRSSVLTLIPQPQDHGTSLTCQVTFPGASVTTNKTVHLNVSYPPQNLTMTVFQGDGTVSTVLGNGSSLSLPEGQSLRLVCAVDAVDSNPPARLSLSWRGLTLCPSQPSNPGVLELPWVHLRDAAEFTCRAQNPLGSQQVYLNVSLQSKATSGVTQG
notes: also called human Siglec-9 IgG fusion; recombinant Siglec 9; not shown: human IgG part of the fusion (captured with mouse anti human IgG)
binding result: binds
